Legend:
Assay in all cases: purified protein
Format in all cases: biochemical, Trametes cinnabarina
Conditions in all cases: 50 mM sodium tartrate pH 6, 30 °C, HRP 8 U, 0.1 mM ABTS, 5 µM H2O2
purified protein [1] = substrate: O=Cc1ccc(C=O)o1
purified protein [2] = substrate: O=Cc1ccc(CO)o1
purified protein [3] = substrate: CC(=O)C=O
purified protein [4] = substrate: O=CC(=O)O
purified protein [5] = substrate: O=CC=O
purified protein [6] = substrate: OCC(O)CO

B1: PciGLOX1 (Trametes cinnabarina) (protein)
chain: APSAPGWRFDLKAERSGIVALESIVVSPTLVLWFDRASDDPLQINNHSAWGALWNLETSTVRPLNVLTNSFCASGALLSNGSMASVGGDPRGFPGNPAINPGNQAIRIFEPCASPTGDGCTVFEDPQTLHLLEDRWYPSSIRIFDGSLLIVGGTHVNENFYNLHPANSFEFFPPKESTPRPSAFLERSLPANLFPRIFALPDGKVFMVANNQSIIYDIEANTERILPDIPNNVRVTNPIDGSAILLPLTPPDYIPEVLVCGGTSTDPLDPSLLSSQTPATTQCSRIRLDEEGIAKGWQVEHMLEPRTMPELVHIPNGQILIANGARTGFAAIKQVQDPIGNSNSDHAVLVPSIYTPDAPLGQRISNAGMPSSGIARVYHSSITLTPQGNFLIAGSNPNGNTTVGPGVKFPSEFRVQTLDPPFMFVERPKILNTPEKLAFNKTFTVPISVPSTLASPGAKVQVSLMDLGFSSHAFHSSARLVFMDATISRDRRSLTFTTPPNGRVFPPGPATVFLTIDGVTSEGAWVMMGSGNSPPTLE
notes: secreted copper radical oxidase (AA5), heterologously produced in Aspergillus niger, purified
- Km (purified protein [1]): 4380 ± 100 µM
- kcat (purified protein [1]): 0.54 ± 0.24 s⁻¹
- kcat/Km (purified protein [1]): 124.39 ± 0.01 M⁻¹ s⁻¹
- Km (purified protein [2]): 15660 ± 2350 µM
- kcat (purified protein [2]): 1.59 ± 0.12 s⁻¹
- kcat/Km (purified protein [2]): 101.66 ± 0.01 M⁻¹ s⁻¹

B2: PciGLOX3 (Trametes cinnabarina) (protein)
chain: APSAPGWSFDLKKETSGIVALEAIVVSPTLVVFFDRASDDPLQINNHSAWGALWNLESSTVRPLDVLTNSFCASGALLSNGTMASVGGDPDGFVGNPAIRPGNQAIRLFEPCDSPTGDGCTLFEDPATLHLLEKRWYPSSARIFDGSLIIVGGMHEATPFYNTDPALSFEFFPRKEDTPRPSEFLNRSLPANLFPRVFALPDGKVFMVANNQSIIYDIEAKTERILPDVPNNVRVTNPMDGSAILLPLSPPDFVPEVLVCGGSQTDTIDPSLLTSQTPASSQCSRIRLDEEGIAKGWEVEHMLEGRIMPELVHLPNGQVLIANGGRTGFAAIASVSEPVGNSNADHPVLVPSLYTPDAPLGRRISNVGLPSSGIPRLYHSSVTLTPQGNFLIAGSNPNNRTTVGPGIKFPSEFRVQTLDPPFMSVERPKILNMPKKLGFNKSFTVPISVPSSLARPGAKVQISLMDLGFSSHAFHSSARLVFMNGKISQDSKSLTFTTPPNGRVYPPGPATVFLTIDDVTSEGAWVMMGSGNSPPTLE
notes: as for B1
- Km (purified protein [3]): 100 µM
- Km (purified protein [4]): 500 µM
- Km (purified protein [5]): 700 µM
- Km (purified protein [1]): 180 ± 50 µM
- kcat (purified protein [1]): 1.28 ± 0.09 s⁻¹
- kcat/Km (purified protein [1]): 7267.7 ± 0.01 M⁻¹ s⁻¹
- Km (purified protein [2]): 6350 ± 1320 µM
- kcat (purified protein [2]): 0.75 ± 0.07 s⁻¹
- kcat/Km (purified protein [2]): 118.35 ± 0.01 M⁻¹ s⁻¹
- Km (purified protein [6]): 5500 µM

B3: PciGLOX2 (Trametes cinnabarina) (protein)
chain: APSTPTGWQFNLKAERSGIVALESIVVSPTLVVFFDRATNDPLQINNHSAWGALWNLETSTVRALDVLTNSFCASGALLSNGTMASIGGDPNGFPGNPAIHPGTQAIRLFEPCDSPTGEGCTLFEDPVTLHLLEKRWYPSSVRIFDGSLLIVGGMHEETPFYNTDPALSFEFFPPKESTPRPSEFLNRSLPANLFPRVFALPDGKVFMVANNQSIIYDIEANTERILPDIPNNVRVTNPIDGSAILLPLSPPDFVPEVLVCGGTQTDTIDPSLLTSQTPASSQCSRIRLDEEGIARGWEVEHMLEGRMMPELVHLPNGQVLIANGARTGFAAIASVSDPVGGSNADHAVLVPSLYTPDAPLGTRISNVGLPSSGIARVYHSSITLTPQGNFLIAGSNPNNNSSVTAGVKFPSEFRVQTLDPPFMFVERPKILSMPKKLAFGKSFTVPIAVPSTLAHPGAKVQVSLMDLGFSSHAFHSSARLVFMNAKISQDGKSLTFTTPPNGRVYPPGPATIFLTIDDVTSEGAWVMMGSGNPPPTLE
notes: as for B1
- Km (purified protein [1]): 210 ± 40 µM
- kcat (purified protein [1]): 4.8 ± 0.24 s⁻¹
- kcat/Km (purified protein [1]): 23404 ± 0.01 M⁻¹ s⁻¹
- Km (purified protein [2]): 5870 ± 2040 µM
- kcat (purified protein [2]): 0.56 ± 0.09 s⁻¹
- kcat/Km (purified protein [2]): 96.04 ± 0.01 M⁻¹ s⁻¹

Reference: article PMC6442418, “Pycnoporus cinnabarinus glyoxal oxidases display differential catalytic efficiencies on 5-hydroxymethylfurfural and its oxidized derivatives” (Fungal Biology and Biotechnology, 2019)
